Changes are numbered by the printed parent chain.

T1: cynomolgus sclerostin (cynomolgus monkey)
T1 chain: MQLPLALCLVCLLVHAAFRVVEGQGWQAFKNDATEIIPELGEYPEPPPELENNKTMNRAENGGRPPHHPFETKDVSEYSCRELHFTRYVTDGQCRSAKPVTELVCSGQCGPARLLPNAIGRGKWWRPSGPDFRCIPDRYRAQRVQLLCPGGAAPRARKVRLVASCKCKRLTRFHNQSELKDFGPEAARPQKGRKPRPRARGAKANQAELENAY

T2: mouse sclerostin (mouse)
T2 chain: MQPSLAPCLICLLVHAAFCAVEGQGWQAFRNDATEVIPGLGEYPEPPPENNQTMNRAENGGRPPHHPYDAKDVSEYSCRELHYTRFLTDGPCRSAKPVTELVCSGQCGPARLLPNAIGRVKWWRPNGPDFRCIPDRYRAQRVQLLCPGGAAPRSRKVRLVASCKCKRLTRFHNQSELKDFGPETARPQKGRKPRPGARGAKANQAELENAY

T3: human sclerostin (human)
T3 chain: T1 chain with A16T, Q93P, A152E, P184T, G201S

T4: rat sclerostin (rat)
T4 chain: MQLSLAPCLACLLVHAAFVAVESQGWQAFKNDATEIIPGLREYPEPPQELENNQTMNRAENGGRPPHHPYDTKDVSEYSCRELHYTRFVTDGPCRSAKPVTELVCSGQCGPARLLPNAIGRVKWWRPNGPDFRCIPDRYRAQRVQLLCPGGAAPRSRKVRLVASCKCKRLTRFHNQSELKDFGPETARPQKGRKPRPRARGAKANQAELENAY

B1: bsH656/abL152 (antibody, V domains shown)
VH: QVQLVQSGAEVKKPGASVKVSCKVSGYTLTHTFMHWVRQAPGKGLEWMGWSDPEIGDTEYASKFQGRVTMTEDTSTDTAYMELSSLRSEDTAVYYCATGDTTYKFDYWGQGTLVTVSS
VL: DIQMTQSPSSLSASVGDRVTITCRASEGIHDALAWYQQKPGKAPKLLIYWASTLESGVPSRFSGSGSGTDFTLTISSLQPEDFATYYCQQGDTLPYTFGGGTKVEIK
B2: amH848/bsH656/abL152 (antibody)
chain 1: EVQLVQSGAEVKKPGASVKVSCKASGYTFTSYNMHWVRQAPGKGLEWMGEIMPHSGRYGLKQKFKGRVTMTRDTSISTAYMELSRLRSDDTAVYYCARLEYSEIYDDWYFDVWGQGTTVTVSS
chain 2: B1 VL
chain 3: B1 VH
chain 4: B1 VL
B3: amH848/bsH638/abL152 (antibody)
chain 1: B2 chain 1
chain 2: B1 VL
chain 3: B1 VH with T58H
chain 4: B1 VL
B4: bsH638/abL152 (antibody, V domains shown)
VH: B1 VH with T58H
VL: B1 VL
B5: amH852/bsH638/abL152 (antibody)
chain 1: B2 chain 1 with S31D, R72T, I76T, S84R, R85S
chain 2: B1 VL
chain 3: B1 VH with T58H
chain 4: B1 VL
B6: amH852/bsH656/abL152 (antibody)
chain 1: B2 chain 1 with S31D, R72T, I76T, S84R, R85S
chain 2: B1 VL
chain 3: B1 VH
chain 4: B1 VL
B7: amH852/abL152 (antibody, V domains shown)
VH: B2 chain 1 with S31D, R72T, I76T, S84R, R85S
VL: B1 VL
B8: amH848/abL152 (antibody, V domains shown)
VH: B2 chain 1
VL: B1 VL
B9: mabB (antibody, V domains shown)
VH: B1 VH with Y27F, T28P, L29I, T30K, H31D, M34Q, Y107F, L113T
VL: DIQMTQSPSSLSASVGDRVTITCKASQDVHTAVAWYQQKPGKAPKLLIYWASTRWTGVPSRFSGSGSGTDFTLTISSLQPEDFATYYCQQYSDYPWTFGGGTKVEIK
B10: mabA (antibody, V domains shown)
VH: EVQLVQSGAEVKKPGASVKVSCKASGYTFTDYNMHWVRQAPGQGLEWMGEINPNSGGAGYNQKFKGRVTMTTDTSTSTAYMELRSLRSDDTAVYYCARLGYDDIYDDWYFDVWGQGTTVTVSS
VL: B1 VL with E27Q, G28D, H30S, D31N, A32Y, A34N, W50Y, A51T, T53R, E55L
B11: mabB_pH1 (antibody, V domains shown)
VH: B1 VH with Y27F, T28P, L29I, T30K, T32H, M34Q, Y107F, L113T
VL: B9 VL with S92H
B12: mabB_pH5 (antibody, V domains shown)
VH: B1 VH with Y27F, T28P, L29I, T30K, T32H, M34Q, D100H, Y107F, L113T
VL: B9 VL with P95H
B13: mabB_pH4 (antibody, V domains shown)
VH: B1 VH with Y27F, T28P, L29I, T30K, T32H, M34Q, Y107F, L113T
VL: B9 VL with P95H
B14: mabA_pH4 (antibody, V domains shown)
VH: B10 VH with N54H, G57H, G100H, Y105H
VL: B1 VL with E27H, G28D, D31N, A32Y, A34N, W50Y, A51T, T53R, E55L
B15: mabA_NpH3 (antibody, V domains shown)
VH: B10 VH
VL: DIQMTQSPSSLSASVGDRVTITCRASQDISNYLNWYQQKPGKAPKLLIYYHSRLLSGVPSRFSGSGSGTDFTLTISSLQPEDFATYYCHQGDTLPYTFGGGTKVEIK
B16: mabB//mabA_pH2 (antibody)
chain 1: B1 VH with Y27F, T28P, L29I, T30K, H31D, M34Q, Y107F, L113T
chain 2: B9 VL
chain 3: B10 VH with G57H, G100H, D103H
chain 4: B15 VL with Q27H, H51T, H89Q
B17: mabB//mabA_pH3 (antibody)
chain 1: B1 VH with Y27F, T28P, L29I, T30K, H31D, M34Q, Y107F, L113T
chain 2: B9 VL
chain 3: B10 VH with N54H, G57H, G100H, Y105H
chain 4: B15 VL with Q27H, H51T, H89Q
B18: mabB//mabA_pH1 (antibody)
chain 1: B1 VH with Y27F, T28P, L29I, T30K, H31D, M34Q, Y107F, L113T
chain 2: B9 VL
chain 3: B10 VH with G57H, G100H
chain 4: B15 VL with Q27H, H51T, H89Q

The first assay addresses T1, cynomolgus sclerostin. The assay can be described thus: SPR, pH 7.4. A general note: Surface plasmon resonance follows binding to a sensor surface in real time, without labels.
Consider B1, for which the off-rate constant (koff) – broadly, the first-order rate constant of dissociation – is 0.0108 s⁻¹.
The molecule B2 returned a koff of 0.000606 s⁻¹.
Still for that read-out and setting: as for B3, the figure is 0.000606 s⁻¹; as for B4, 0.0107 s⁻¹.
Regarding B5, the koff worked out at 0.000387 s⁻¹.
Take B6: the koff was found to be 0.000405 s⁻¹.
On the same count and under the same terms, as for B7, the figure is 0.0019 s⁻¹.
The same measure, in the same setting: the result for B8 reads 0.00854 s⁻¹.

The target in a further assay is T1, cynomolgus sclerostin. The assay can be described thus: SPR, pH 7.4 to 5.8.
For the molecule B2, the koff is 0.374 s⁻¹.
The molecule B3 registered a dissociation rate constant (koff) of 0.227 s⁻¹.
On the same count and under the same terms, the result for B5 reads 0.0598 s⁻¹.
The same measure, in the same setting: as for B6, the figure is 0.116 s⁻¹; as for B7, 0.107 s⁻¹.

For a further assay, the target named is T2, mouse sclerostin. The assay can be described thus: SPR, pH 5.8, 37C.
As for B9, the Kd (in general, the equilibrium constant for the complex coming apart) was determined as 260 pM.

A further assay concerns the target T1, cynomolgus sclerostin. The assay can be described thus: SPR, pH 7.4, 37C.
Molecule B10 came in with a dissociation constant (Kd) of 75.3 pM.

A further assay deals with T3, human sclerostin. The assay can be described thus: SPR, pH 7.4 to 5.8.
Regarding B2, the off-rate (koff) was 0.222 s⁻¹.
On to B3, for which the off-rate constant (koff) was determined as 0.1 s⁻¹.
Still for that read-out and setting: the result for B5 reads 0.028 s⁻¹; that for B6, 0.0593 s⁻¹; that for B7, 0.0882 s⁻¹.

Another assay addresses T3, human sclerostin. The assay can be described thus: SPR, pH 7.4, 37C.
B10 returned a Kd of 80 pM.

For another assay, the target named is T2, mouse sclerostin. The assay can be described thus: SPR, pH 7.4, 37C.
Take B11: the dissociation constant Kd is 138 pM.
The same measure, in the same setting: as for B9, the figure is 14.1 pM; as for B12, 589 pM.
On the same count and under the same terms, as for B13, the figure is 782 pM; as for B10, 0.00302 pM; as for B14, 1730 pM.

The next assay addresses T3, human sclerostin. The assay can be described thus: SPR, pH 5.8, 37C.
In turn, B10 showed a Kd of 1440 pM.

The target of the next assay is T4, rat sclerostin. The assay can be described thus: SPR, pH 7.4, 37C.
B10 returned an equilibrium dissociation constant (Kd) of 0.0938 pM.
The same measure, in the same setting: the result for B15 reads 42.6 pM.

The next assay deals with T1, cynomolgus sclerostin. The assay can be described thus: SPR, pH 5.8, 37C.
For the molecule B10, the affinity, expressed as Kd, was 1400 pM.

The target of a further assay is T3, human sclerostin. The assay can be described thus: SPR, pH 7.4.
B1 yielded a koff of 0.0104 s⁻¹.
Turning to B2, the koff was found to be 0.000515 s⁻¹.
Still for that read-out and setting: the result for B3 reads 0.000596 s⁻¹.
For the molecule B4, the dissociation rate constant (koff) was found to be 0.0093 s⁻¹.
Molecule B5 returned a koff of 0.000418 s⁻¹.
For B6, the dissociation rate constant (koff) came out at 0.000419 s⁻¹.
With B7, the koff was found to be 0.00257 s⁻¹.
The same measure, in the same setting: as for B8, the figure is 0.00946 s⁻¹.

For the next assay, the target named is T4, rat sclerostin. The assay can be described thus: SPR, pH 5.8, 37C.
In turn, B10 displayed a Kd of 0.00307 pM.
The same measure, in the same setting: the result for B15 reads 45.4 pM.

The target of the next assay is T2, mouse sclerostin. The assay can be described thus: SPR, pH 7.4 to 5.8, 37C.
B11: the koff came to 0.0206 s⁻¹.
B16 had a koff of 0.0186 s⁻¹.
The same measure, in the same setting: as for B17, the figure is 0.0516 s⁻¹.
On the same count and under the same terms, as for B18, the figure is 0.0347 s⁻¹.
B14 had a dissociation rate constant (koff) of 0.0418 s⁻¹.

The values are drawn from patent US11608374 (dated 2023).
